T1: Ep-CAM (UniProt P16422 24-265, limits assumed)
T1 construct: Immobilised on the Biacore chip; construct not described
T1 sequence (looked up): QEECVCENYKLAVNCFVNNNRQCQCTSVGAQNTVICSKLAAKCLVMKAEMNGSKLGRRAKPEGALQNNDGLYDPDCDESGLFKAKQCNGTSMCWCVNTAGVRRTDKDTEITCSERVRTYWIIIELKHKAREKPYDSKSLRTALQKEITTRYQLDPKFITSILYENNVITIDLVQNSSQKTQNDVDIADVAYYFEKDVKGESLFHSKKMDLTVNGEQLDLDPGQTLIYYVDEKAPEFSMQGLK

T2: Ep-CAM (UniProt P16422 24-265, limits assumed)
T2 sequence (looked up): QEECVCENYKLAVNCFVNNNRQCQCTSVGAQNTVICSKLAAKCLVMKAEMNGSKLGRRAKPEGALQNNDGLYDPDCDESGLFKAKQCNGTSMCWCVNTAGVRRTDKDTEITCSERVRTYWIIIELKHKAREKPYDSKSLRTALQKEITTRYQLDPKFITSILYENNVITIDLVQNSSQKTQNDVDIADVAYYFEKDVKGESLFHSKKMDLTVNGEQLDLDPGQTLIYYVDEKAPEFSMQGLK


Tests used:
Ep-CAM [1] = biological target: T1, Ep-CAM; experiment: Biacore, Fab periplasmic extract
Ep-CAM [2] = biological target: T2, Ep-CAM; experiment: Biacore, Fab periplasmic extract on immobilised Epcam

Binder	fold difference in affinity vs original (Ep-CAM [2]) [fold]	also measured
ING-1 Fab, light chain E98P (Fab, V domains shown, Fab in periplasmic extract) VH: QIQLVQSGPELKKPGETVKISCKASGYTFTKYGMNWVKQAPGKGLKWMGWINTYTEEPTYGDDFKGRFAFSLETSASTANLQINNLKSEDTATYFCARFGSAVDYWGQGTSVTVSS VL: DIVMTQAAFSNPVTLGTSGSISCRSSKSLLHSNGITYLYWYLQKPGQSPQLLIYQMSNLASGVPDRFSSSGSGTDFTLRISRVEAEDVGVYYCAQNLPLPRTFGGGTKLEMKR	–	binding result (Ep-CAM [1]): no binding
ING-1 Fab, heavy chain Y32G (Fab, V domains shown, Fab in periplasmic extract) VH: QIQLVQSGPELKKPGETVKISCKASGYTFTKGGMNWVKQAPGKGLKWMGWINTYTEEPTYGDDFKGRFAFSLETSASTANLQINNLKSEDTATYFCARFGSAVDYWGQGTSVTVSS VL: DIVMTQAAFSNPVTLGTSGSISCRSSKSLLHSNGITYLYWYLQKPGQSPQLLIYQMSNLASGVPDRFSSSGSGTDFTLRISRVEAEDVGVYYCAQNLELPRTFGGGTKLEMKR	0.02	–
ING-1 Fab, heavy chain Y32I (Fab, V domains shown, Fab in periplasmic extract) VH: QIQLVQSGPELKKPGETVKISCKASGYTFTKIGMNWVKQAPGKGLKWMGWINTYTEEPTYGDDFKGRFAFSLETSASTANLQINNLKSEDTATYFCARFGSAVDYWGQGTSVTVSS VL: DIVMTQAAFSNPVTLGTSGSISCRSSKSLLHSNGITYLYWYLQKPGQSPQLLIYQMSNLASGVPDRFSSSGSGTDFTLRISRVEAEDVGVYYCAQNLELPRTFGGGTKLEMKR	0.03	–
ING-1 Fab, heavy chain Y32L (Fab, V domains shown, Fab in periplasmic extract) VH: QIQLVQSGPELKKPGETVKISCKASGYTFTKLGMNWVKQAPGKGLKWMGWINTYTEEPTYGDDFKGRFAFSLETSASTANLQINNLKSEDTATYFCARFGSAVDYWGQGTSVTVSS VL: DIVMTQAAFSNPVTLGTSGSISCRSSKSLLHSNGITYLYWYLQKPGQSPQLLIYQMSNLASGVPDRFSSSGSGTDFTLRISRVEAEDVGVYYCAQNLELPRTFGGGTKLEMKR	0.05	–
ING-1 Fab, heavy chain Y32P (Fab, V domains shown, Fab in periplasmic extract) VH: QIQLVQSGPELKKPGETVKISCKASGYTFTKPGMNWVKQAPGKGLKWMGWINTYTEEPTYGDDFKGRFAFSLETSASTANLQINNLKSEDTATYFCARFGSAVDYWGQGTSVTVSS VL: DIVMTQAAFSNPVTLGTSGSISCRSSKSLLHSNGITYLYWYLQKPGQSPQLLIYQMSNLASGVPDRFSSSGSGTDFTLRISRVEAEDVGVYYCAQNLELPRTFGGGTKLEMKR	0.01	–
ING-1 Fab, heavy chain Y105A (Fab, V domains shown, Fab in periplasmic extract) VH: QIQLVQSGPELKKPGETVKISCKASGYTFTKYGMNWVKQAPGKGLKWMGWINTYTEEPTYGDDFKGRFAFSLETSASTANLQINNLKSEDTATYFCARFGSAVDAWGQGTSVTVSS VL: DIVMTQAAFSNPVTLGTSGSISCRSSKSLLHSNGITYLYWYLQKPGQSPQLLIYQMSNLASGVPDRFSSSGSGTDFTLRISRVEAEDVGVYYCAQNLELPRTFGGGTKLEMKR	0.08	–
ING-1 Fab, heavy chain Y105G (Fab, V domains shown, Fab in periplasmic extract) VH: QIQLVQSGPELKKPGETVKISCKASGYTFTKYGMNWVKQAPGKGLKWMGWINTYTEEPTYGDDFKGRFAFSLETSASTANLQINNLKSEDTATYFCARFGSAVDGWGQGTSVTVSS VL: DIVMTQAAFSNPVTLGTSGSISCRSSKSLLHSNGITYLYWYLQKPGQSPQLLIYQMSNLASGVPDRFSSSGSGTDFTLRISRVEAEDVGVYYCAQNLELPRTFGGGTKLEMKR	–	binding result (Ep-CAM [2]): no binding
ING-1 Fab, heavy chain Y105P (Fab, V domains shown, Fab in periplasmic extract) VH: QIQLVQSGPELKKPGETVKISCKASGYTFTKYGMNWVKQAPGKGLKWMGWINTYTEEPTYGDDFKGRFAFSLETSASTANLQINNLKSEDTATYFCARFGSAVDPWGQGTSVTVSS VL: DIVMTQAAFSNPVTLGTSGSISCRSSKSLLHSNGITYLYWYLQKPGQSPQLLIYQMSNLASGVPDRFSSSGSGTDFTLRISRVEAEDVGVYYCAQNLELPRTFGGGTKLEMKR	–	binding result (Ep-CAM [2]): no binding

Source: patent publication US20110118131A1 (published 2011)
